2 substances from patent US20180030111A1 can be followed below.

In test [1] the target is FcgRIIIa receptor (CD16a) on human NK cells (human) (UniProt P08637). In words: cell-based or functional assay.
For test [2], the target named is C1q complement (rabbit serum as complement source) (rabbit). In words: cell-based or functional assay.
Test [3] deals with FcgRIIIa receptor (CD16a) on human NK cells (human) (UniProt P08637). Briefly: cell-based or functional assay. This is another data set of the same source.
The target of another test is CD64 (UniProt P12314). Briefly: ELISA, purified IgG on coated receptor, ratio against wild-type.
Test [4] deals with CD32aH (FcgRIIa receptor, H at position 131) (human) (UniProt P12318). Described as above.
Test [5] deals with CD32b (FcgRIIb receptor) (human) (UniProt P31994). The test is described as above.
For test [6], the target named is CD32aR (FcgRIIa receptor, R at position 131) (human) (UniProt P12318). Described as above.
Test [7] concerns the target FcgRIIIa receptor (CD16a) (human) (UniProt P08637). In words: cell-based or functional assay.

Sequence of FcgRIIIa receptor (CD16a) on human NK cells (human) (P08637 17-254): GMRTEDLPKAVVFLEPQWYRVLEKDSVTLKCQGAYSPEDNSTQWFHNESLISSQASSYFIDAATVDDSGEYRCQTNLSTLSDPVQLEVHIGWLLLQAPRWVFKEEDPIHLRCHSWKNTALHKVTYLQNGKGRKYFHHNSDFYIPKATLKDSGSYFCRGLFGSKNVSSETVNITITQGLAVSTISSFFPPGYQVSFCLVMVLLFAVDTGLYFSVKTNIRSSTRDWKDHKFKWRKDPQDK
Sequence of FcgRIIIa receptor (CD16a) (human) (P08637 17-254): as above
Sequence of CD32b (FcgRIIb receptor) (human) (P31994 46-217): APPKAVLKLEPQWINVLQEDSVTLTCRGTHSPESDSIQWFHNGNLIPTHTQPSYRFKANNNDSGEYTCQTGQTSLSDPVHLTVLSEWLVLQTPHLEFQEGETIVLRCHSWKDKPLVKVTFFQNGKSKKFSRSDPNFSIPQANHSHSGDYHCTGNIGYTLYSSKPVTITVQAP
Sequence of CD32aH (FcgRIIa receptor, H at position 131) (human) (P12318 34-217): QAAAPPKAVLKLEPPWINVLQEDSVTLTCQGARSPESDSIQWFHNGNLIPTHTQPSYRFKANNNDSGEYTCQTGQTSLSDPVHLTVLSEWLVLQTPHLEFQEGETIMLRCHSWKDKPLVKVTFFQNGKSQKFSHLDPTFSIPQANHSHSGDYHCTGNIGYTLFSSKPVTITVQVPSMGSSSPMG
Sequence of CD64 (P12314 16-288 limits assumed): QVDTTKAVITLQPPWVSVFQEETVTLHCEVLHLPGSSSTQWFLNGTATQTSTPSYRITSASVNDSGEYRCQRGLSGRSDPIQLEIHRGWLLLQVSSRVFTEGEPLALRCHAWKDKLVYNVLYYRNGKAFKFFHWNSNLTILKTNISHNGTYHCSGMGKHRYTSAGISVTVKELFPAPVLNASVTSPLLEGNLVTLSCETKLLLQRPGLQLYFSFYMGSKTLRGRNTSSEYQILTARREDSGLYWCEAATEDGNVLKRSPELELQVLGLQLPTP

As for “anti-CD20 IgG variant A3A-173 (K248E, K334R, A378V) (antibody)”, in test [1], the ADCC, EC50: Antibody concentration (ng/ml) giving 50% maximum lysis of an internal control came out at 1.38 ng/mL and the ADCC, Ratio [WT]/[antibody] worked out at 0.33. Also, in test [2], the CDC amounted to 29.5; the CDC, Antibody concentration (ng/ml) giving 50% lysis of an internal control is 16 ng/mL; the CDC, Ratio [WT]/[antibody] is 16.4. Moreover, the ADCC in test [3] is 0.3. The ELISA ratio (purified antibodies) with CD64 was 1.2. Further, in test [4], the ELISA ratio (purified antibodies) was determined as 0.95. Also, the ELISA ratio (purified antibodies) in test [5] amounted to 1.3. Besides, the ELISA ratio (purified antibodies) in test [6] was found to be 1.3.

In the case of IgG-WT (antibody), in test [7], the ADCC EC50: Antibody concentration (ng/ml) giving 50% lysis of an internal control was 12.3 ng/mL and the ADCC, Ratio [WT]/[antibody] amounted to 1.
